Laboratory results reported in patent publication US20230322924A1 (Janssen / Centocor, published 2023).
Changes are numbered by the printed parent chain. Names and notes keep the numbering of the source. Read-outs that look alike come from different tables or passages of the source.

How the values were obtained:
[1] = target: T1, cynomolgus monkey PSMA on HEK cells (cynomolgus); experiment: flow cytometry, mammalian Fab supernatant on cyno-PSMA HEK cells (PSMG5), anti-human kappa-RPE
T1 construct: whole, on cells; also called Cyno-PSMA HEK; PSMG5
Description: (§1) (Mammalian Fab Supernatant Titration Curves for Anti-PSMA Phage Panning Hits vs Cyno PSMA HEK). […] In FIG. 24D, Mammalian-expressed supernatants were normalized for Fab expression via octet, and titrated against either human LNCAP, PSMG5 (Cyno-PSMA HEK), or PSMG9 (chimp-PSMA HEK) cells using flow cytometry. Geometric mean fluorescence intensity (GeoMFI) was plotted vs. Fab concertation using GraphPad Prizm.
(§2) A cell-based binding assay was designed to assess the binding capabilities of individual Fab-his fusions from E. coli supernatants to PSMA-expressing cells. Individual Fab clones were isolated from the round 3 output of all panning experiments following pIX excision. Fab clones were tested for binding to chimp and cyno PSMA expressing HEK cells, as well as to human PSMA on LNCaP cells. Briefly, PSMA expressing cells were aliquoted into a V-bottom plate (CoStar 3357) at a density of 200,000 per well and incubated with (100 μl) supernatants expressing Fab fragments for 1 hour on ice. […] Plates were read on a BD FACS Array flow cytometer. FACS data was analyzed in FlowJo software by live gating the healthy population of cells using forward scatter and side scatter, and then analyzing the cells within this gate for PE staining. Mean fluorescence intensity (MFI) was calculated and exported into Microsoft Excel. […]

[2] = target: T2, human PSMA on cells (LNCaP) (human, UniProt Q04609 1-750); experiment: flow cytometry, mammalian Fab supernatant on LNCaP cells, anti-human kappa-RPE
T2 construct: whole, on cells; also called LNCaP cells
T2 sequence (Q04609 whole entry): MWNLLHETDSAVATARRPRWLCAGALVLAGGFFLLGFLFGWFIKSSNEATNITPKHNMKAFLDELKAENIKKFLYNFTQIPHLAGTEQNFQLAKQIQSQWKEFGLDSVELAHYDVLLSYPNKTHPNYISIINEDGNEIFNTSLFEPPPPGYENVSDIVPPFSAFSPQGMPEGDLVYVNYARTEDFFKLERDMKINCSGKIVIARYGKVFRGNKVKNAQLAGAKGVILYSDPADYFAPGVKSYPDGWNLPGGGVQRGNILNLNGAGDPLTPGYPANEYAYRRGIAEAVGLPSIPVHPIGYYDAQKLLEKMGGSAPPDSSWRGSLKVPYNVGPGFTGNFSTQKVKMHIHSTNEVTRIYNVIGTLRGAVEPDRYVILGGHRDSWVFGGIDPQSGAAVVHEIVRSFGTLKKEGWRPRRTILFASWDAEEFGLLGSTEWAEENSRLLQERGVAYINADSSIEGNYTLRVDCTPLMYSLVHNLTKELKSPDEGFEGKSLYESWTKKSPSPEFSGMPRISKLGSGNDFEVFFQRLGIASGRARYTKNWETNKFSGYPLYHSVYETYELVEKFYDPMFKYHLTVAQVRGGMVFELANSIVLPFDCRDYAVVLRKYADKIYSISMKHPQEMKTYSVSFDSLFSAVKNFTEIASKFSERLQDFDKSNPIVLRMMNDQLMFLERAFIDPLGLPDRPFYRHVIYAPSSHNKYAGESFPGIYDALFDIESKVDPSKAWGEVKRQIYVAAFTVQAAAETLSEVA
Description: (§3) Individual Fab clones were isolated from the round 3 output of all panning experiments following pIX excision. Fab clones were tested for binding to chimp and cyno PSMA expressing HEK cells, as well as to human PSMA on LNCaP cells. Briefly, PSMA expressing cells were aliquoted into a V-bottom plate (CoStar 3357) at a density of 200,000 per well and incubated with (100 μl) supernatants expressing Fab fragments for 1 hour on ice. Cells were washed twice with PBS containing 2% FBS, and stained with a mouse anti-human kappa-RPE antibody (Life Technologies cat #MH10514) for 1 hour on ice. Cells were washed twice with PBS containing 2% FBS and resuspended in […] of the same wash buffer. Plates were read on a BD FACS Array flow cytometer. FACS data was analyzed in FlowJo software by live gating the healthy population of cells using forward scatter and side scatter, and then analyzing the cells within this gate for PE staining. Mean fluorescence intensity (MFI) was calculated and exported into Microsoft Excel. […] Fabs were sequenced and moved forward for cloning into mammalian expression vector for rescreening. True positives were selected from the binding of mammalian cell expressed Fab supernatants to PSMA-expressing cell lines.
FIGS. 22A, 22B, 22C and 22D show the titration curves for anti-PSMA panning hits vs. LNCaP cells. […] Binding profiles among hits were compared across cell lines expressing different species of PSMA.

[3] = target: T3, chimpanzee PSMA on HEK cells (chimpanzee, UniProt H2Q3K5 1-750); experiment: flow cytometry, mammalian Fab supernatant on chimp-PSMA HEK cells (PSMG9), anti-human kappa-RPE
T3 construct: also called chimp-PSMA HEK; PSMG9
T3 sequence (H2Q3K5 entry or part of it limits assumed): as the sequence (Q04609 whole entry) above, with S155L, R281H, H475Y, S613N, S647T, V660L, E727D, Y733S counted along it
Description: as §3
(§4) FIGS. 22A, 22B, 22C and 22D show the titration curves for anti-PSMA panning hits vs. LNCaP cells. […]

[4] = target: T3, chimpanzee PSMA on HEK cells; experiment: as above; remark: listed apart in the source
Description: as §3, §4

[5] = target: T1, cynomolgus monkey PSMA on HEK cells; experiment: flow cytometry, mammalian Fab supernatant on cyno-PSMA HEK cells (PSMG5), anti-human kappa-RPE; remark: listed apart in the source
Description: as §1, §2

[6] = target: T4, Human CD33 full length (human, UniProt P20138 18-364); experiment: cell-based or functional assay
T4 sequence (P20138 18-364 limits assumed): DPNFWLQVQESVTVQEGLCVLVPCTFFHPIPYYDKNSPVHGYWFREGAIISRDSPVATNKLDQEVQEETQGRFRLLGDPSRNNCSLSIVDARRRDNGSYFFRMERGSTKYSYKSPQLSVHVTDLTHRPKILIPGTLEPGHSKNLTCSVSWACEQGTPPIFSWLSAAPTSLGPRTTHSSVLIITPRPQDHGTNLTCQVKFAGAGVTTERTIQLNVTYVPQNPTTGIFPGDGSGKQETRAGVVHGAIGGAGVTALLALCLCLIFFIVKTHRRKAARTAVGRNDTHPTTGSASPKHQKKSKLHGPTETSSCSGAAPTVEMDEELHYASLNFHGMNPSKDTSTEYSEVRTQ

[7] = target: Cyno CD3e (cynomolgus monkey, UniProt Q95LI5 22-198); experiment: cell-based or functional assay
Chain of Cyno CD3e (Q95LI5 22-198): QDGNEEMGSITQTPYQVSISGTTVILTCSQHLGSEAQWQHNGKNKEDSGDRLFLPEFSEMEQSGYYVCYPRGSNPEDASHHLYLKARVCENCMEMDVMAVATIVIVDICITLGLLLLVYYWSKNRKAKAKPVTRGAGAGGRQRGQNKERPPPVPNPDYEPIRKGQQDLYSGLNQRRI

[8] = target: Cyno CD33 full length (cynomolgus monkey); experiment: cell-based or functional assay
[9] = target: T4, Human CD33 full length; experiment: cell-based or functional assay; remark: listed apart in the source
[10] = target: T5, Rh-integrin a4b7 (UniProt P13612 34-977; P26010 20-723, limits assumed); experiment: Biacore 8K SPR, antibody over immobilised protein
T5 construct: rh read as recombinant human
Description: (§5) Non-specific binding of the lead molecule to unrelated surfaces is determined by biosensor technology (Biacore 8K). Antibody is passed over SPR surfaces coated with unrelated proteins. […] Irrelevant surfaces include negatively charged protein (Soy Trypsin Inhibitor), positively charged protein (Lysozyme and β-defensin), hydrophobic (Rh-integrin a4b7), human IgG, sticky protein (Rh-CD19). Proper controls are used in this experiment. Lead is flown over two surfaces, one is a blank and the other has a molecule directly immobilized. The response unit (RU) level is determined by subtracting the blank RU from the test surface RU. […] A response unit ≥100 predicts high risks for non-specific binding to charged/hydrophobic/IgG surfaces which would create challenges during manufacturing and translate to poor PK properties.

[11] = target: T6, Rh-CD19 (UniProt P15391 20-291, limits assumed); experiment: Biacore 8K SPR, antibody over immobilised protein
T6 construct: rh read as recombinant human
T6 sequence (looked up): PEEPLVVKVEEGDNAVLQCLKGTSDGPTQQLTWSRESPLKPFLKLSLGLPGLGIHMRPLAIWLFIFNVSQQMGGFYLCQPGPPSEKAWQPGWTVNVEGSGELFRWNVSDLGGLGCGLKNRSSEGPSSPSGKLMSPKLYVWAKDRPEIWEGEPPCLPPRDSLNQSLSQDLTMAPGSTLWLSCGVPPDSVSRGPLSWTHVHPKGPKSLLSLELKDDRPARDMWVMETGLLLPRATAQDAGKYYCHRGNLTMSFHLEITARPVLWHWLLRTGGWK
Description: as §5

[12] = target: T7, human CD3 on human T cells (human, UniProt P07766 23-207); experiment: Kd = IC50/(1+[T]/KdT) from competition with AF488 SP-34 on human pan T cells
T7 construct: Native TCR-CD3 complex on cells; also called primary human T cells; human pan T cells
T7 sequence (P07766 23-207 limits assumed): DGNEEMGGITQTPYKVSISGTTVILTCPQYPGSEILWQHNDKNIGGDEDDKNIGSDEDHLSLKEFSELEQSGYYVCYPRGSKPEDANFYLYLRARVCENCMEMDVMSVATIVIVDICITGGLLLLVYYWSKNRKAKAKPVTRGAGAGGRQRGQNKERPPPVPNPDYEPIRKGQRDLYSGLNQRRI
Description: (§6) The mixture was added to the T cells for 2 hours at 4° C. Cells were then washed to remove un-bound antibody, fixed for 15 minutes, washed, and re-suspended in FACS Staining buffer containing 1 mM EDTA.
(§7) The iQue Intellicyte Flow Cytometer was used to measure binding. Cells were gated for T-cell population, followed by cell singlets, followed by Live Cells (FL4). Geometric mean of staining (FL1) was determined for each well. The acquired mean fluorescence intensity values were plotted as a function of the log antibody molecule concentration (converted to nM) and analyzed using Prism software in a sigmoidal dose-response (variable slope) from which the EC50/IC50 values (in nM) are derived. The binding affinity (Kd) was derived using the following formula: Kd=IC50/(1+([T]/KdT)).

[13] = target: T7, human CD3 on human T cells; experiment: competition with AF488 SP-34 tracer on human pan T cells, flow cytometry
Description: as §6, §7

B1: PSMM59 (Fab, V domains shown)
VH: EVQLVQSGAEVKKPGESLKISCKGSGYSFTSYWISWVRQMPGKGLEWMGIIYPGDSYTRYSPSFQGQVTISADKSISTAYLQWSSLKASDTAMYYCARDYEWELFDSRLDYWGQGTLVTVSS
VL: not shown
notes: Mammalian Fab supernatant; also called PSMB58
EC50 (read off the curve) [1]: ~0.2 µg/mL

B2: PSMM18 (Fab, V domains shown)
VH: EVQLVQSGAEVKKPGESLKISCKGSGYSFTSYWIGWVRQMPGKGLEWMGIIYPGDSDTRYSPSFQGQVTISADKSISTAYLQWSSLKASDTAMYYCARAYHYSKGLDYWGQGTLVTVSS
VL: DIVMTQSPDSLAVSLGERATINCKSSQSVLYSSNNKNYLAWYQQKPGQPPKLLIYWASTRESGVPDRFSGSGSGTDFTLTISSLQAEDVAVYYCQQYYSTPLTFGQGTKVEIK
notes: Mammalian Fab supernatant; also called PSMB18
binding result [2]: binds
EC50 (read off the curve) [3]: ~0.3 µg/mL

B3: PSMM87 (Fab, V domains shown)
VH: QVQLVQSGAEVKKPGSSVKVSCKASGGTFKSYDISWVRQAPGQGLEWMGGIIPIEGTANYAQKFQGRVTITADESTSTAYMELSSLRSEDTAVYYCARDYPAGYGFDYWGQGTLVTVSS
VL: not shown
notes: Mammalian Fab supernatant; also called PSMB86
EC50 (read off the curve) [4]: ~0.4 µg/mL
EC50 (read off the curve) [2]: ~0.2 µg/mL

B4: PSMM85 (Fab, V domains shown)
VH: EVQLLESGGGLVQPGGSLRLSCAASGFTFDSDWMSWVRQAPGKGLEWVSAISGNGGSTEYADSVKGRFTISRDNSKNTLYLQMNSLRAEDTAVYYCARDPYYYYDGDSYYGMDVWGQGTLVTVSS
VL: not shown
notes: Mammalian Fab supernatant; also called PSMB84
EC50 (read off the curve) [5]: ~0.4 µg/mL

B5: C3CB88 (bispecific antibody, IgG4, V domains shown)
VH 1: EVQLVESGGGLVQPGRSLRLSCAASGFTFDDYAMHWVRQAPGKGLEWVSGIGWSGGSIVYADSVKGRFTISRDNAKNSLYLQMNSLRAEDTALYYCAKDSPYGDFFDYWGQGTLVTVSS
VL 1: DIVMTQSPDSLAVSLGERATINCKSSQTVFYSSNNKNYLAWYQQKPGQPPKLLISWASTRKSGVPDRFSGSGSGTDFTLTVSSLQAEDVAVYYCQHYYSTPYTFGQGTKLEIK
VH 2: EVQLVESGGGLVQPGGSLRLSCAASGFTFNTYAMNWVRQAPGKGLEWVARIRSKYNNYATYYAASVKGRFTISRDDSKNSLYLQMNSLKTEDTAVYYCARHGNFGNSYVSWFAYWGQGTLVTVSS
VL 2: QTVVTQEPSLTVSPGGTVTLTCRSSTGAVTTSNYANWVQQKPGQAPRGLIGGTNKRAPGTPARFSGSLLGGKAALTLSGVQPEDEAEYYCALWYSNLWVFGGGTKLTVL
Primary AML Cell Killing EC50 [6]: 0.672 nM
T cell activation EC50 [7]: 0.02 nM
CD33^+ CD14^+ Killing EC50 [8]: 0.89 nM
CD33^+ CD14^+ Killing EC50 [9]: 0.506 nM
MOLM13 Killing EC50 [9]: 0.671 nM

B6: C3CB189 (bispecific antibody, IgG4, V domains shown)
VH 1: B5 VH 1
VL 1: B5 VL 1
VH 2: QVQLQQSGPRLVRPSQTLSLTCAISGDSVFNNNAAWSWIRQSPSRGLEWLGRTYYRSKWLYDYAVSVKSRITVNPDTSRNQFTLQLNSVTPEDTALYYCARGYSSSFDYWGQGTLVTVSS
VL 2: QSALTQPASVSGSPGQSITISCTGTSSNIGTYKFVSWYQQHPDKAPKVLLYEVSKRPSGVSSRFSGSKSGNTASLTISGLQAEDQADYHCVSYAGSGTLLFGGGTKLTVL
Primary AML Cell Killing EC50 [6]: 0.578 nM
T cell activation EC50 [7]: 0.02 nM
CD33^+ CD14^+ Killing EC50 [8]: 3.6 nM
CD33^+ CD14^+ Killing EC50 [9]: 1.16 nM
MOLM13 Killing EC50 [9]: 0.168 nM

B7: PSMM52 (Fab, V domains shown)
VH: QVQLVQSGAEVKKPGSSVKVSCKASGGTFSSYAISWVRQAPGQGLEWMGWIIPYNGNANYAQKFQGRVTITADESTSTAYMELSSLRSEDTAVYYCARVNSAALVWERLDYWGQGTLVTVSS
VL: DIQMTQSPSSLSASVGDRVTITCRASQSIDRWLNWYQQKPGKAPKLLIYAASSLQSGVPSRFSGSGSGTDFTLTISSLQPEDFATYYCQQSPRYPLTFGQGTKVEIK
notes: Mammalian Fab supernatant; also called PSMB51
EC50 (read off the curve) [5]: ~0.2 µg/mL
EC50 (read off the curve) [1]: ~0.2 µg/mL
EC50 (read off the curve) [4]: ~0.2 µg/mL
EC50 (read off the curve) [2]: ~0.3 µg/mL
EC50 (read off the curve) [3]: ~0.2 µg/mL

B8: CD3B376 (antibody, human IgG4 S228P, lambda, F234A L235A, V domains shown)
VH: B6 VH 2
VL: QSALTQPASVSGSPGQSITISCTGTSSNIGTYKFVSWYQQHPDKAPKVLLYEVSKRPSGVSSRFSGSKSGNTASLTISGLQAEDQADYHCVSYAGSGTLLFGGGTKLTVLG
notes: IgG4 PAA (S228P, F234A, L235A); LC is CD3L124 with C91V; also called CD3H219/CD3L150; bivalent CD3B376
binding result [10]: no binding (tested: response unit ≥100 predicts high risks)
binding result [11]: no binding (tested: response unit ≥100 predicts high risks)
Kd [12]: 7.3 nM
IC50 [13]: 29 nM

B9: CD3B450 (antibody, human IgG4 S228P, lambda, F234A L235A, V domains shown)
VH: B6 VH 2 with R10G, R13K, V73I, R79K, T83S, L96V
VL: B8 VL with D43G, L49M, L50I, S62N, Q85E, H89Y
notes: IgG4 PAA; also called CD3H231/CD3L197; bivalent CD3B450
Kd [12]: 15 nM
IC50 [13]: 60 nM
